Assay results as given in the supplement of paper PMC9112550, “Optimization of the antimicrobial peptide Bac7 by deep mutational scanning” (BMC Biology, 2022).

test system: Escherichia coli TOP10; experiment: shrunken log2 fold change of peptide-encoding DNA abundance (4.5 h post-induction vs induction); higher = less antimicrobial activity (less host growth inhibition); conditions: time post-induction: 4.5 h; library: site-saturation at positions 5, 18, 19, 20
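Further: peptides expressed intracellularly from a pBAD plasmid library in pooled LB shake-flask culture, induced with 0.3% L-arabinose, DNA abundance read by NGS, three biological replicates, DESeq2 with apeglm shrinkage.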

Compared with RRIRMRPPRLPRPRPRPNWRPRP, RRIRQRPPRLPRPRPRPFTFPRP is lower in “shrunken log2 fold change” value: 0.0183 for the first, -0.249 for the second.

Compared with RRIRFRPPRLPRPRPRPNYDPRP, RRIRPRPPRLPRPRPRPLYIPRP is higher in “shrunken log2 fold change” value: -0.866 for the first, -0.227 for the second.

First: RRIRTRPPRLPRPRPRPQWIPRP
Second: RRIRGRPPRLPRPRPRPSVWPRP
The “shrunken log2 fold change” value of the first is lower: -0.809 for the first, 0.622 for the second.

Compared with RRIRLRPPRLPRPRPRPRALPRP, RRIRPRPPRLPRPRPRPIYKPRP is lower in “shrunken log2 fold change” value: 2.21 for the first, -0.333 for the second.

RRIRKRPPRLPRPRPRPTLSPRP and RRIRDRPPRLPRPRPRPGGQPRP are within 0.2 log units of each other in “shrunken log2 fold change” value: 0.0214 for the first, 0.211 for the second.

Going from RRIRERPPRLPRPRPRPNCIPRP to RRIRSRPPRLPRPRPRPADDPRP, the “shrunken log2 fold change” value rises from -0.712 to 0.479.

Compared with RRIRDRPPRLPRPRPRPTCNPRP, RRIRPRPPRLPRPRPRPLRWPRP is higher in “shrunken log2 fold change” value: 0.13 for the first, 0.588 for the second.

Compared with RRIRNRPPRLPRPRPRPWNHPRP, RRIRLRPPRLPRPRPRPGFTPRP is higher in “shrunken log2 fold change” value: -0.612 for the first, -0.191 for the second.

Going from RRIRQRPPRLPRPRPRPQAHPRP to RRIRQRPPRLPRPRPRPETHPRP, the “shrunken log2 fold change” value rises from -0.23 to 0.0176.

First: RRIRLRPPRLPRPRPRPQHAPRP
Second: RRIRNRPPRLPRPRPRPNSQPRP
The “shrunken log2 fold change” value of the first is higher: -0.0395 for the first, -0.265 for the second.

Compared with RRIRVRPPRLPRPRPRPVCKPRP, RRIRVRPPRLPRPRPRPLYHPRP is lower in “shrunken log2 fold change” value: -0.444 for the first, -0.677 for the second.

RRIRPRPPRLPRPRPRPESHPRP and RRIRQRPPRLPRPRPRPQCVPRP are within 0.2 log units of each other in “shrunken log2 fold change” value: -0.00995 for the first, -0.0168 for the second.

First: RRIRQRPPRLPRPRPRPHVWPRP
Second: RRIRCRPPRLPRPRPRPQFIPRP
The “shrunken log2 fold change” value of the first is higher: 0.03 for the first, -0.866 for the second.

First: RRIRKRPPRLPRPRPRPSEGPRP
Second: RRIRNRPPRLPRPRPRPVMWPRP
The “shrunken log2 fold change” value of the first is lower: 0.0116 for the first, 0.351 for the second.

RRIRMRPPRLPRPRPRPNNKPRP and RRIRDRPPRLPRPRPRPTHFPRP are within 0.2 log units of each other in “shrunken log2 fold change” value: -0.183 for the first, -0.0613 for the second.

Going from RRIRNRPPRLPRPRPRPETWPRP to RRIRCRPPRLPRPRPRPIKNPRP, the “shrunken log2 fold change” value falls from 0.0309 to -0.311.

Compared with RRIRPRPPRLPRPRPRPNDKPRP, RRIRQRPPRLPRPRPRPLEKPRP is higher in “shrunken log2 fold change” value: -0.52 for the first, -0.0015 for the second.

Compared with RRIRMRPPRLPRPRPRPVDHPRP, RRIRERPPRLPRPRPRPKPMPRP is higher in “shrunken log2 fold change” value: -0.0711 for the first, 0.21 for the second.

RRIRYRPPRLPRPRPRPIGDPRP and RRIRCRPPRLPRPRPRPMRNPRP are within 0.2 log units of each other in “shrunken log2 fold change” value: -0.00783 for the first, 0.185 for the second.

Compared with RRIRGRPPRLPRPRPRPRHKPRP, RRIRPRPPRLPRPRPRPLDFPRP is lower in “shrunken log2 fold change” value: 0.149 for the first, -0.116 for the second.

RRIRLRPPRLPRPRPRPICGPRP and RRIRTRPPRLPRPRPRPMCKPRP are within 0.2 log units of each other in “shrunken log2 fold change” value: -0.0025 for the first, -0.0839 for the second.

RRIRVRPPRLPRPRPRPCFGPRP and RRIRPRPPRLPRPRPRPGKIPRP are within 0.2 log units of each other in “shrunken log2 fold change” value: -0.263 for the first, -0.168 for the second.

Compared with RRIRQRPPRLPRPRPRPSEGPRP, RRIRHRPPRLPRPRPRPCKHPRP is lower in “shrunken log2 fold change” value: 0.0871 for the first, -1.38 for the second.

RRIRERPPRLPRPRPRPGLKPRP and RRIRGRPPRLPRPRPRPSKLPRP are within 0.2 log units of each other in “shrunken log2 fold change” value: 0.131 for the first, 0.0492 for the second.

First: RRIRERPPRLPRPRPRPIDLPRP
Second: RRIRWRPPRLPRPRPRPCQWPRP
The “shrunken log2 fold change” value of the first is lower: -0.219 for the first, 0.0226 for the second.

RRIRKRPPRLPRPRPRPFYVPRP and RRIRSRPPRLPRPRPRPLDCPRP are within 0.2 log units of each other in “shrunken log2 fold change” value: -0.0997 for the first, -0.212 for the second.

First: RRIRSRPPRLPRPRPRPSGAPRP
Second: RRIRFRPPRLPRPRPRPYIKPRP
The “shrunken log2 fold change” value of the first is higher: 0.12 for the first, -1.28 for the second.

RRIRVRPPRLPRPRPRPSQPPRP and RRIRGRPPRLPRPRPRPFRVPRP are within 0.2 log units of each other in “shrunken log2 fold change” value: -0.112 for the first, -0.149 for the second.

First: RRIRMRPPRLPRPRPRPSQFPRP
Second: RRIRRRPPRLPRPRPRPHGSPRP
The “shrunken log2 fold change” value of the first is higher: 0.379 for the first, -0.0609 for the second.

RRIRIRPPRLPRPRPRPIRNPRP and RRIRGRPPRLPRPRPRPYFCPRP are within 0.2 log units of each other in “shrunken log2 fold change” value: -0.236 for the first, -0.119 for the second.

RRIRKRPPRLPRPRPRPIMNPRP and RRIRKRPPRLPRPRPRPNIMPRP are within 0.2 log units of each other in “shrunken log2 fold change” value: -0.119 for the first, -0.189 for the second.

Compared with RRIRMRPPRLPRPRPRPKNFPRP, RRIRDRPPRLPRPRPRPLATPRP is higher in “shrunken log2 fold change” value: -0.15 for the first, 1.1 for the second.

Going from RRIRQRPPRLPRPRPRPEWPPRP to RRIRARPPRLPRPRPRPPDHPRP, the “shrunken log2 fold change” value rises from -0.0954 to 0.683.

RRIRERPPRLPRPRPRPHPWPRP and RRIRKRPPRLPRPRPRPCTMPRP are within 0.2 log units of each other in “shrunken log2 fold change” value: -0.392 for the first, -0.271 for the second.

RRIRGRPPRLPRPRPRPCGQPRP and RRIRQRPPRLPRPRPRPEEAPRP are within 0.2 log units of each other in “shrunken log2 fold change” value: 0.142 for the first, 0.188 for the second.

First: RRIRKRPPRLPRPRPRPIMYPRP
Second: RRIRIRPPRLPRPRPRPWKFPRP
The “shrunken log2 fold change” value of the first is higher: 0.0532 for the first, -0.158 for the second.

Compared with RRIRPRPPRLPRPRPRPFNCPRP, RRIRARPPRLPRPRPRPGPLPRP is higher in “shrunken log2 fold change” value: -0.537 for the first, 0.429 for the second.

With RRIRQRPPRLPRPRPRPMRQPRP the “shrunken log2 fold change” value was -0.0137.
